# Test results from patent US20240158515A1 (Regeneron, published 2024).
# Positions count from the first letter of the chain named.
# T1: murine FGFR3b expressed with a C-terminal myc-myc-hexahistidine tag (mFGFR3b.mmH) (murine)
# T1 construct: also called REGN3215; monomeric murine FGFR3b
# T1 chain: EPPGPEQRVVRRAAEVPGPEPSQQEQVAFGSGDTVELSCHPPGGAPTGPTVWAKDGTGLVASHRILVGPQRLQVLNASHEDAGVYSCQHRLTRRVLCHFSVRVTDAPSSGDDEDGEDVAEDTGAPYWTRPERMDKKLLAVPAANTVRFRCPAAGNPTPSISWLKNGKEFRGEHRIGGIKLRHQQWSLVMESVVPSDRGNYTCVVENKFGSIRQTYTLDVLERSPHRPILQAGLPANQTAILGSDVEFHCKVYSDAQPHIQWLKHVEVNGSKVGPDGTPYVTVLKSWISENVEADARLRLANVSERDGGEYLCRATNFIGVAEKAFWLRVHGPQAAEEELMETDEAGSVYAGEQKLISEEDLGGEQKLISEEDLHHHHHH
# T2: cynomolgus FGFR3b expressed with a C-terminal myc-myc-hexahistidine tag (mfFGFR3b.mmH) (cynomolgus)
# T2 construct: also called REGN3521; mf FGFR3b ecto (R357G)(E23-G377;R357G).mmH
# T2 chain: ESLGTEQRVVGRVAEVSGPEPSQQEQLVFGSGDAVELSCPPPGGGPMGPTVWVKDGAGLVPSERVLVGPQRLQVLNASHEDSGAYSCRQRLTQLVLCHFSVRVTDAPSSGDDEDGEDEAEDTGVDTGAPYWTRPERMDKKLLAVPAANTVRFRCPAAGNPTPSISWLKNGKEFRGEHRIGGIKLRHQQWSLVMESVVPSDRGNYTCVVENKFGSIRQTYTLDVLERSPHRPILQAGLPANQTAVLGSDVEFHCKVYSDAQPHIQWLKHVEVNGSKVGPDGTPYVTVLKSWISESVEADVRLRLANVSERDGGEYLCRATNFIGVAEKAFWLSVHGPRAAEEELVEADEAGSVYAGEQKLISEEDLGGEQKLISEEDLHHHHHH
# T3: human FGFR3b expressed with a C-terminal myc-myc-hexahistidine tag (hFGFR3b.mmH) (human)
# T3 construct: also called REGN3152; monomeric human FGFR3b
# T3 chain: T2 chain with V13A, S17P, S22G, A57T, L94R, K171R
# B1: H4H30063P (antibody, human IgG4 S228P, kappa, V domains shown)
# VH: QVQLQESGPGLVKPSETLSLTCTVSGDSINSYFWSWIRQLPGKELEWIGHIYSSGSTRYNPSLQSRVTISIDTSKNQFSLKLSSVTAADTAVYYCARGASAVDYWGQGTLVTVSS
# VL: EIVLTQSPGTLSLSPGERATLSCRTSQSISSGYLAWYQQKPGQAPRLLIYGASRRATGIPDRFSGSGSGTDFTLTISRLEPEDFVVYYCQQYGSSPYTFGQGTKLEIKR
# notes: HCVR 2, LCVR 10; also called REGN15684
# Key:
# [1] = biological target: T1, murine FGFR3b expressed with a …; assay: SPR Biacore, mAb captured on anti-hFc, 25C
# [2] = biological target: T2, cynomolgus FGFR3b expressed with a …; assay: SPR Biacore, mAb captured on anti-hFc, 25C
# [3] = biological target: T3, human FGFR3b expressed with a …; assay: SPR Biacore, mAb captured on anti-hFc, 25C
# [4] = biological target: T4, human FGFR3c expressed with a C-terminal myc-myc-hexahistidine tag (hFGFR3c.mmH) (human, UniProt P22607 23-375); assay: SPR Biacore, mAb captured on anti-hFc, 25C; row marked NB
# T4 construct: also called REGN3155; monomeric human FGFR3c
# [5] = biological target: full length human FGFR3b on BaF3 cells (BAF3/FGFR3b, ACL11991) (human, UniProt P22607 23-808); assay: cell-based or functional assay
# [6] = biological target: full length human FGFR3b S249C on BaF3 cells (BAF3/FGFR3b_S249C, ACL11986) (human, UniProt P22607 23-808); assay: cell-based or functional assay
binder,measurement,setting,value
B1,90 nM mFGFR3b.mmH Bind (RU),[1],259 RU
same,Kd,[1],0.137 nM
same,koff,[1],2.78e-05 s⁻¹
same,kon,[1],204000 M⁻¹ s⁻¹
same,t½,[1],6.92 h
same,90 nM mfFGFR3b.mmH Bind (RU),[2],212 RU
same,Kd,[2],0.275 nM
same,koff,[2],4.21e-05 s⁻¹
same,kon,[2],153000 M⁻¹ s⁻¹
same,t½,[2],4.58 h
same,90 nM hFGFR3b.mmH Bind (RU),[3],240 RU
same,Kd,[3],0.222 nM
same,koff,[3],3.83e-05 s⁻¹
same,kon,[3],172000 M⁻¹ s⁻¹
same,t½,[3],5.03 h
same,90 nM hFGFR3c.mmH Bind (RU),[4],-19.6 RU
same,"IC50 [M], BaF3 proliferation (CellTiter-Glo) with 1 nM FGF1 + 5 ug/ml heparin",[5],6.06e-10 M
same,"Max Blocking (%), BaF3 proliferation (CellTiter-Glo) with 1 nM FGF1 + 5 ug/ml heparin",[5],98%
same,"IC50 [M], BaF3 proliferation (CellTiter-Glo) with 1 nM FGF1 + 5 ug/ml heparin",[6],5.08e-10 M
same,"Max Blocking (%), BaF3 proliferation (CellTiter-Glo) with 1 nM FGF1 + 5 ug/ml heparin",[6],93.4%
